Assay results from a protein production outcome set (Wang et al. 2014).

Assay: label from the status in PepcDB records
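Further: failed if final PepcDB status was selected cloned or expressed and not failed if soluble or beyond.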

Sequence	protein production
MSIRSLGYLRIEATDMAAWREYGLKVLGMVEGKGAPEGALYLRMDDFPARLVVVPGEHDRLLEAGWECANAEGLQEIRNRLDLEGTPYKEATAAELADRRVDEMIRFADPSGNCLEVFHGTALEHRRVVSPYGHRFVTGEQGMGHVVLSTRDDAEALHFYRDVLGFRLRDSMRLPPQMVGRPADGPPAWLRFFGCNPRHHSLAFLPMPTSSGIVHLMVEVEQADDVGLCLDRALRRKVPMSATLGRHVNDLMLSFYMKTPGGFDIEFGCEGRQVDDRDWIARESTAVSLWGHDFTVGARG	not failed
MRIIKFPEQISEDIIHYTFLDDIISYNCEKCRGSCCHVNNSLLLDAKTASFLKRTYLKDFIVSDDSVSLLSCGKKCWFHSELGCTINDLGLNKPLTCELYPFHIKKIQNFYIVSFTPCPTFQLNLGEGQRYKDIEDVVLRYIKTGVPVFSPSLHVSEERLKYEIEYQNNFKNTLSEYYRTKTADGTTEFKEYEKWYIYYLDFRWGSIPLSYTSSQANQFWNLYKRVCEDVYKKISYIRTDNIYFIIANQFNKTISKHFQLNFIDKELEHHHHHH	not failed
MKKAIYLLILCIFGLFSVYFTYAENISDISNTTSKNISSSNISHNNIIYSNINYNEILYIIVKNNTAYVKDVINGTNNPYHIKSAGIILYEKIYGYNYSNLLYRNSSNSLIFYYNFSVDKINYTINITIPQIEDYVGSLGGPIRMRIPPNNVKIIIVAENKLAETNGKYILEYNKTDKKVISLIYLDNVSSICNIYYTKFFNSSEFYGYAVANVTSITENRTSYTIKNPKGTFTFDRKYNVFVSNKTAYLKEPYLYVKLYNSTIDDIIILENNKISENSTKFMSNYLLSFIGIIIGFGIIGLAIYLSKRGRK	failed
MFEQIIAILFPVMSLVLIGYLIGLWLKPDFRPINRINMEAFVPALVFSSLVNMPLDTQQTPLLLAALVAVLLPGILMLLICRLGRWSFKTWAPLHMFRNSGNLAIPLFTYAFGETALPSAVLLFVVSMCLHISLGVAMLSKGSVLKTVLSAPVFLASSLALLLNLSGVSIWSPLYNATALLGQAAVPVMLLSLGSQMINLRLAGLKVGLVSTAQSLLTGACAFTVIYFFIPLPPLQLQMMVLFTMLPPAVMNYLFAERYHIEPTQVAAMVLFGNFFSLLSLPILLFIALSL	failed
MTEFTTLLQQGNAWFFIPSAILLGALHGLEPGHSKTMMAAFIIAIKGTIKQAVMLGLAATISHTAVVWLIAFGGMVISKRFTAQSAEPWLQLISAVIIISTAFWMFWRTWRGERNWLENMHGHDYEHHHHDHEHHHDHGHHHHHEHGEYQDAHARAHANDIKRRFDGREVTNWQILLFGLTGGLIPCPAAITVLLICIQLKALTLGATLVVSFSIGLALTLVTVGVGAAISVQQVAKRWSGFNTLAKRAPYFSSLLIGLVGVYMGVHGFMGIMR	failed
MDGASRENPGLAAAGGAVRDGNENWVGVFALNIEICSAPLAELWGLYYGLHIVWEQGITRLELEVDSKIVVGFLQTGIPDSHPLSFLLRLCYGFISRDWLVRISHVYREVNRLADGLANYAFSLPLGLYVFNSVPDSIASFVLEDARMLEEYRMKFWLLEDLGLRHCGNVKANGFHRVSAYPREKSHGRHRLYVLHY	failed
MTISIDRPAPVSSWRTYRRLLAFAKPYRLLLVAALIAALIEAAGTTGFLALMKPITDETFIYKNAEVSRWLPVQIILLFVVRGVAGYITDMAMGKSARSIARDLRIKVMAKYLRLPGSRFDSEPVPSMLIRLGSDSDQVAQAAVDAVKVMIQQSLQVIGALALMLWHSWQVTLTILVLAPVLAWVMDKVARRYRRISHSIQESGAQLLQAADQTLSSHQEVKIYGAQQTEMERYGALANRNLRLAMKVESTRGISTATVQMIGAIGLSALLFVAGAQALAGRLTAGDFVVLMTSMLTIIPGLKQLTNVQNMVQRGLASAERLFSVLDSPDEPDQGTVPLTRAKGLIEFRDVTARYPGQVNPALADVSFVAQPGTVTAIVGRSGSGKSSLIKLIPRFYEAEAGQILLDGHPVQAYALADLRRQIALVGQQVMLFDGSIADNVAFGEMRNADAGKLERAILGANAMEFVAQLPEGLQSHVGTKGGRLSGGQRQRLAIARAMLKDAPVLILDEATAALDNESERLVQDALHKLMPDRTTLVIAHRLSTIEHADQVLVMDQGRIVERGTHHQLLAQGGLYSHLHGMQFRERQA	failed
MINDALKPYLEEKIESAKKTVPSFALEELKQKIISSPIQFGKSDIDDLVANLLKRYEQTKENSLIGKIDSIFKEISDMEKVMSGKAAEPAQPAEKPKKKAKLEAIGDDVVSIMVSLRWLEFLLDNYGPENTLDVLDYYESLGWISSTVKEQMMKYAKMTGVMNPAQEYKIKPSIQDHIINMLFIEKLRGEEINRDLIEALEREFRTIRKGVDELYGI	failed
MNLFRKCLLILGLASPLYLGLGQTSAHAEAVPPLAPTTCQATNLPQPSTAAIRELTPTGTLRVAINTGNYVLATEADDFGPFGISVDIAHLLAKGLGVPSEFTVVQAAAVSFERVSKNLSDIGFFGVDPWRAESVDYTNPYIQIEGAYIVRQDSPILTLADVDRAGIQIVVGKNSVYNLFLDRNIHHAHLVQAPTSPEVTGFMLAHKFPVGAGIRNQLVADMKRYGGLRILSTSFMIIHQAMATGKGRPQGLSYLQSFISELKKSGCIQELITKYAVDDAVVSP	failed
MKPDIYENNREGILCVYKNEKWLVCIKNWKPDNDIEGIAHLEIHHSTDEQFILSAGKAILITAEKENDKFNIELTLMEKGKVYNVPAECWFYSITQKDTKMMYVQDSNCSMDNSDFCDLSKEEIEYIQTNARKLFEK	not failed
EEAGRSATEIARAVAAVSAPIDLVAAGAAIDSGVNRLIYTRHFLRTMIPNALAKWQQHPGLFDRELVQRATTLREFDDAFTAPLHGFTGVDDYWTRASSKPHLHKITIPALVVNARNDPFVPAVSLPTQDEVGEMVTLWQPDEGGHVGFATGPWPGRIAAMPEAVSDWLGAV	failed
LAPPRHLGFSDVSHDAARVFWEGAPRPVRLVRVTYVSSEGGHSGQTEAPGNATSAMLGPLSSSTTYTVRVTCLYPGGGSSTLTGRVTTKKAPSPS	not failed
MIGQFLITFREALEAAIIVAIIIAYLKRTDREEQIRDVWIGVGLSVLASVVLGAIILGLYGGIEEKELFEGIASYLAVIVLTSMIYWMATKGRNIRAEIERKVSKAINPLALVGFTFIVVFREGLETVLFLTPFAIQDLGGTLMGLVSGIIGALILAYLIYGVGMRINLRTFFYYSSILLVFVAAGLAGYGTHELIEWAEEEGMNLGFIEETAYNLGIPEDSVFHHKGVIGSIFAVLFGYSVKMEWGRVIVQFGYLIVTLYLVLRAYGQETPTAKAEK	failed
MAKLAGQKVRIGGWVKTGRQQGKGTFAFLEVNDGSCPANLQVMVDSSLYDLSRLVATGTCVTVDGVLKIPPEGKGLKQSIELSVETVIAVGTVDP	not failed
MSLRLKKLQKIVPYSPLKSLKIWHLFCVVRLCSIVVTSMTAGKTPTHFTTQPLNRVLGETSGAFADLGTFLPLVLGLIALNQFSPQGIFLGFGVFAILSALFYRRPMPVQPMKVIAALVIAQGLTPGMLQASAMLMGIILLILAFSGAITWLAKQLSQAVSVGIQLAIGLQLMWMGAKMMSDFWLLGLGAFALLFASKFLPLRYLAMPLVIAAGMIWQANSQTDMATSLSIPALSASLHLAWPTLNEWSSAAILLVLPQLALTLTNAVIATSVMAQEKFPEDAAKLTPKNLAISSGLANLLLAPFGAAAMCHGAGGLAVQYHFGARTHLAPLIFGGTCLVIALFWDSQMAWLLGLIPVAILGSLLSIGGLQLAWSKRLIDGKPFCIFVILSTAVTCLAINAAAGLAVGIILEQGRRTWAMLAMR	failed
MTVTNMTEWFAKGVEALHHDHVYLARACFEQAVTEQRSPLSSSYLALCQAKTRGTFSDAIASAREAVAADPANPALYHNLGCIYLLAGKRTEAIETFRQGLRVGLEHHHHHH	not failed
MKSSKAEKELTHQYVLNDSLHQLFDAVNIVSVQGYDEQRRVIYWNVGSELLYGYTQKEALGQKLEDLIIPKPMREIVIGAHSDWIKKGIEIPASEITLCHKNGNDVNVFSSHALFTNQYNKKQMYCIDVNLA	failed
SNRLPDDYDPYAVEEPSDEEPALSSSEDEVDVLLHGTPDQKRKLIRECLTGESESSSEDEFEKEMEAELNSTMKTMEDKLSSLGTGSSSGNGKVATAPTRYYDDIYFDSDSEDEDRAVQVTKKKKKKQHKIPTNDELLYDPEKDNRDQAWVDAQRRGYHGLGPQRSREQQPVPNSDAVLNCPACMTTLCLDCQRHESYKTQYRAMFVMNCSINKEEVLRYKASENRKKRRVHKKMRSNQEDAAEKAETDVEEIYHPVMCTECSTEVAVYDKDEVFHFFNVLASHS	not failed
MSLDSKTAPAFSLPDLHGKTVSNADLQGKVTLINFWFPSCPGCVSEMPKIIKTANDYKNKNFQVLAVAQPIDPIESVRQYVKDYGLPFTVMYDADKAVGQAFGTQVYPTSVLIGKKGEILKTYVGEPDFGKLYQEIDTAWRNSDAEGHHHHHH	not failed
MRKKLNNEYRSAKKIRYMPGLDGLRAIAVIGIIIYHLNKQWLTGGFLGVDTFFVISGYLITSLLLKEYEDTGTINLKNFWIRRIKRLLPAVFALIVVVGIATLLLHPEHIVRVKHDMIAAIFYVSNWWYIAKDVNYFEQFSFMPLKHLWSLAIEEQFYLFFPAVLLLFMAIVKKKKNVILMFWIISLVSLLMMVVISQPHLNHSRVYFGTDTRLQTLLLGVLLAFIWPPFKLNPNPPKGLKTVINSAGIIGLTFLILLFFTVSDESDWIYNGGFYLISTMTLLIIASVVHPTTILAKLLGNPLFVYIGKRSYSLYLWHFPVISFIHSYFIDGQLPTYVYIMDIVITVLLAELSFRYVETPLRKEGLKAFTFKKTYKPQFIRTIVTLIMLLPFIFILVGAFDKFGKDTISNKAQTFNTNEADQYLIHMIPIDNISLTSDGKTKENKKDNDVYTQIKPLLIGDSVMVDIGEQFKTKVPKAKIDGKVGRQLYQAESLVKNQYRHYNKPSDQIILELGTNGDFTKEQLDNLIDKFGKAQVYLVNTRVPRSYESHVNELMAKAAKNKKNVTLIDWYSRSKGHTEYFAPDGIHLENDGVEALTDEILKNIKKK	failed
MWTDSREALSDLQLGECERVLDVGCGTGELTRVLREETDGTVVGLDADTDLLAAAGDPTVCGDATQLPFDDDSFDLVVCQALLINLPDPEVAVREFARVATDRVAAIEPNNAAVTVESTVDAEPMLARRARRLFLDGVRTDVTLGSDAADVFSDAELTVVSTTQYDQEQQIEPPYDDAAMQAARRKATGTGLAHDRETILNGEATPAEYDALRERWRSMGRDVVEQMQDEAYERHETVPFFVTVGEIP	failed
MRVRTERLTLAGLSVLARIPEAPKALLLALHGLQGSKEHILALLPGYAERGFLLLAFDAPRHGEREGPPPSSKSPRYVEEVYRVALGFKEEARRVAEEAERRFGLPLFLAGGSLGAFVAHLLLAEGFRPRGVLAFIGSGFPMKLPQGQVVEDPGVLALYQAPPATRGEAYGGVPLLHLHGSRDLIVPLARMEKTLEALRPHYPEGRLARFVEEGAGHTLTPLMARVGLAFLEHWLEAR	not failed
VEIRTGEFEDVAGITDIFNFYIEHTNARFEEFPFTLENREEWFSQFSRTTKYQIYVAVENGVLQGFACSQKYRAIPAFDDTVEVSVYLAQEAKGKGLGSKLYTQLFSSIRAYGVHRILSGVALPNDASVALHKRFGFREVGIFNEYAKKHGQYISSVWLEKALNVESAL	not failed
MSPLHRFSRTEILIGPEKLQRLRESTVAIFGLGGVGSFAAEALCRAGVGRLVLVDFDDICLTNVNRQLHAMDGTVGKAKVQVMAERLRLINPDADIVPHKDFYEAGNSDFLLSGGYNYVVDAIDHITSKLHLIRSCRERELRIISSMGAANKLDPTKIRVADISKTSVCGLARVVRKQLRRQGIKSGVTVVYSTEEPREQAIADAGCRSNCICPNKEEQRFSCEHRRNILGSISFIPSIFGLTMAGVVVNDLAKD	failed
